According to patent publication US20200062856A1 (XDCEXPLORER SHANGHAI, published 2020):
Like-named read-outs stand apart in the source and are kept apart here.

T1: human TPBG protein, full-length, on the cell surface (human, UniProt Q13641 32-420)
T1 sequence (looked up): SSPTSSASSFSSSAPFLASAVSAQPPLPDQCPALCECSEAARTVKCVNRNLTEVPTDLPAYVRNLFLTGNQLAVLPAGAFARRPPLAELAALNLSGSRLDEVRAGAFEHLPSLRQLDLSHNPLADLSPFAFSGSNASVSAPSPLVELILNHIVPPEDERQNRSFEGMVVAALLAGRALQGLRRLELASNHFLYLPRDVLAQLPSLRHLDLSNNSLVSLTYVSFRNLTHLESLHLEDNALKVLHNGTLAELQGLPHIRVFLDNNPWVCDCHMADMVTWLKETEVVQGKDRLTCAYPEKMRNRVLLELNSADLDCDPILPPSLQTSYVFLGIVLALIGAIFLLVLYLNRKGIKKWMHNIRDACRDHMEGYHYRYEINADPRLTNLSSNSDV

T2: human TPBG antigen immobilized on a CM5 chip (human, UniProt Q13641 32-355, limits assumed)
T2 sequence (looked up): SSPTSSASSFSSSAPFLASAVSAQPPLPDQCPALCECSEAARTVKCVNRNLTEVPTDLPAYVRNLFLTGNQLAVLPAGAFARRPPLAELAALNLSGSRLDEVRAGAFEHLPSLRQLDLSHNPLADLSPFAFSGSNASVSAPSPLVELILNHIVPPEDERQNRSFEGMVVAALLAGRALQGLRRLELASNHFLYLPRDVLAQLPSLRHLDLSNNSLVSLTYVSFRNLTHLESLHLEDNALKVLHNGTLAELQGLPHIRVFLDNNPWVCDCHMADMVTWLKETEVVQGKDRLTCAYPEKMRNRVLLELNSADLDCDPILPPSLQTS

T3: mouse TPBG protein, full-length, on the cell surface (mouse, UniProt Q9Z0L0 32-426)
T3 construct: whole, on cells; also called mTPBG; CHOk1-mTPBG
T3 sequence (looked up): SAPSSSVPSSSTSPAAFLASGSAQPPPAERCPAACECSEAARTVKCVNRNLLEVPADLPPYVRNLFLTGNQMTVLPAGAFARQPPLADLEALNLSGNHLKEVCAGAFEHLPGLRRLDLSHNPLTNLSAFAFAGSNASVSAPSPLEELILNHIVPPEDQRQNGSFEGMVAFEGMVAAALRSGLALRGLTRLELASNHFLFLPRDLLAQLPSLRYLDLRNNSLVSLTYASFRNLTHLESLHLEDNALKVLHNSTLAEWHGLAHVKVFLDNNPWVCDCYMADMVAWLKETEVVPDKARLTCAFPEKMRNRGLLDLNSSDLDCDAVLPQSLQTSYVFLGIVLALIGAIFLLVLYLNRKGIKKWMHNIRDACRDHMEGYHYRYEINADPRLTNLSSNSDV

T4: human TPBG-hFc protein (human, UniProt Q13641 32-355)
T4 construct: range 32-355; Expressed in HEK293 cells, purified on protein A; also called immunogen A; hFc tagged TPBG protein; not shown: human IgG Fc fragment of the pCpC vector
T4 sequence (looked up): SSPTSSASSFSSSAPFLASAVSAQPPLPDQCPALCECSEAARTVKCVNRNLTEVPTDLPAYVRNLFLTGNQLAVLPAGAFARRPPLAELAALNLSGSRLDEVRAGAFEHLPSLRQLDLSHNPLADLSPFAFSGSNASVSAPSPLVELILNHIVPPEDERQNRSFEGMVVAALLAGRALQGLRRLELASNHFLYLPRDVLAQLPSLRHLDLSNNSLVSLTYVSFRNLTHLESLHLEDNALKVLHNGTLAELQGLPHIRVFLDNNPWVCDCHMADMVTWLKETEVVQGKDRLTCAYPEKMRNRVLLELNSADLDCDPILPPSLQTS

T5: cynomolgus TPBG protein, full-length, on the cell surface (cynomolgus, UniProt Q4R8Y9 35-420)
T5 construct: whole, on cells; also called cTPBG; CHOk1-cTPBG
T5 sequence (looked up): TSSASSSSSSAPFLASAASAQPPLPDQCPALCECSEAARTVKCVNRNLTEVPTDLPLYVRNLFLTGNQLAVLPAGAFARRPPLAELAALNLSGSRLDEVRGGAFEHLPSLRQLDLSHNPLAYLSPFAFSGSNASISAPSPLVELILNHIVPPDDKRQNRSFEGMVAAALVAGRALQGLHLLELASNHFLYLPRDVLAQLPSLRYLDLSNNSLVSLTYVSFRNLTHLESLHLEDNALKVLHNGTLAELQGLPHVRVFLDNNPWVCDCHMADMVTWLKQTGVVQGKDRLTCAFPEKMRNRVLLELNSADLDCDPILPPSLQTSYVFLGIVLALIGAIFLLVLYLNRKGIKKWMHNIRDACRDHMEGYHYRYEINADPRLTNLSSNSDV


Columns and labels:
[1] = target: T1, human TPBG protein, full-length, on the …; assay: cell-based or functional assay
[2] = target: T1, human TPBG protein, full-length, on the …; assay: cell-based or functional assay; remark: listed apart in the source
[3] = target: T2, human TPBG antigen immobilized on a CM5 …; assay: SPR (Biacore), human TPBG antigen immobilized on CM5 chip
Experimental: To assess the binding specificity and affinity of the humanized anti-TPBG antibody, Biacore analysis was performed using human TPBG antigen immobilized on a CM5 chip. Biacore technique utilizes the change in the refractive index of surface layer after antibody binding to the TPBG antigen immobilized on the surface layer. The binding was determined by surface plasmon resonance (SPR) through detecting the laser refracted from the surface. Non-specific and specific interactions were distinguished by analysis of signal kinetics binding rate and dissociation rate. Chimeric antibodies 12B12 and 28D4 were used as controls.

[4] = target: T3, mouse TPBG protein, full-length, on the …; assay: FACS on CHO-k1 cells with surface-expressed mouse TPBG, fluorescent secondary antibody, mean fluorescence intensity
human TPBG-hFc protein = target: T4, human TPBG-hFc protein; assay: ELISA, coated human TPBG-hFc
Experimental: The purified human TPBG-hFc obtained from step (1) diluting with PBS to a final concentration of 1.0 μg/mL was aliquoted into a 96-well ELISA plate at 100 μL per well, and sealed with a parafilm and incubated at 4° C. overnight. The plate was washed twice with plate washing buffer (PBS containing 0.01% (v/v) Tween 20), and blocked with blocking buffer (PBS containing 0.01% (v/v) Tween 20 and 1% (w/w) BSA) at room temperature for 2 h. The blocking buffer was discarded, and […] per well of the purified antibody TPBG was added. After incubating at 37° C. for 2 h, the plate was washed for three times with plate washing buffer (PBS containing 0.01% (v/v) Tween 20). HRP (horseradish peroxidase)-labeled secondary antibody (purchased from Sigma) was added and incubated at 37° C. for 2 h, and the plate was washed for three times using plate washing buffer (PBS containing 0.01% (v/v) Tween 20). 100 μL of TMB substrate was aliquoted into each well, incubated at room temperature for 30 min, and 100 μL of stop buffer (1.0 N HCl) per well was subsequently added. A_{450 nm} values were read using the ELISA plate reader (SpectraMax 384plus purchased from Molecular Device), and the results were shown in Table 5. […] In Table 5 the IgG control herein is a mice IgG control, the data in the Table are OD_{450 nm} values, and Blank represents the OD_{450 nm} value of PBS buffer in the plate.
The purified humanized TPBG antibody obtained from Embodiment 1 was reacted with human TPBG-hFc, for the method, see (5) Identification of lead antibody in Embodiment 1. The EC50 in Table 11 and Table 12 are calculated according to the OD450 nm value of the h12B12 variants and the h28D4 variants, respectively. […] FIGS. 7A and 7B are the binding reactions of purified humanized h12B12 variants to human TBPG-hFc protein, and FIGS. 8A and 8B are the binding reactions of the purified humanized h28D4 variants to human TBPG-hFc protein.

[5] = target: T1, human TPBG protein, full-length, on the …; assay: FACS on CHOK1-hTPBG cells
[6] = target: T5, cynomolgus TPBG protein, full-length, …; assay: FACS on CHOK1-cTPBG cells

Row | Binder | IC50 of cell killing, MDA-MB-468 cells (CellTiter-Glo, 5 days) [1] [nM] | IC50 of cell killing, NCI-H1568 cells (CellTiter-Glo, 5 days) [1] [nM] | IC50 of cell killing, NCI-H1975 cells (CellTiter-Glo, 5 days) [1] [nM] | IC50 of cell killing, NCI-H1568 cells (CellTiter-Glo, 5 days) [2] [nM] | Kd [3] [nM] | koff [3] [s⁻¹] | kon [3] [M⁻¹ s⁻¹] | binding result [4] | EC50 (human TPBG-hFc protein) [nM] | EC50 [5] [nM] | EC50 [6] [nM]
1 | Humanized Antibody 12B12-12-DM1 (antibody, V domains shown, SMCC-DM1 (sites not given), DAR about 3.0-5.0 per antibody) VH: EVQLVESGGGLVQPGGSLRLSCAASGFTFSNFGMHWVRQAPGKGLEWVSYISSGSTSFYYADTVKGRFTISRDNAKNSLYLQMNSLRDEDTAVYYCARTNSLLRGFFDAWGQGTTVTVSS VL: DIVLTQTPLSLSVTPGQPASISCRASQSVSSSSYTYLHWYLQKPGQPPQLLIKSASNLESGVPDRFSGSGSGTDFTLKISRVEAEDVGVYYCQHSWEIPLTFGQGTKLEIK | 0.44 | 0.38 | 5.93 |  |  |  |  |  |  |  | 
2 | Humanized Antibody 28D4-3-MMAF (antibody, V domains shown, MC-MMAF on cysteines reduced with TCEP (sites not given), DAR 3.0-5.0 per antibody) VH: EVQLVESGGGLVKPGGSLRLSCAASGFTFSNYVMSWIRQAPGKGLEWVAEISTGGSHTYYSDTVTGRFTISRDNAKKSLYLQMNSLRAEDTAVYYCIMFYYGSSYSMDYWGQGTTVTVSS VL: DIQMTQSPSSLSASVGDRVTITCRASQDIRNYLNWYQQKPGKAPKLLIYHTSRLHSGVPSRFSGSGSGTDFTFTISSLQPEDIATYYCQQGDTLPLTFGQGTRLEIK |  |  |  | 0.061 |  |  |  |  |  |  | 
3 | Humanized antibody 28D4-3 (antibody, V domains shown, also called h28D4-3) VH: EVQLVESGGGLVKPGGSLRLSCAASGFTFSNYVMSWIRQAPGKGLEWVAEISTGGSHTYYSDTVTGRFTISRDNAKKSLYLQMNSLRAEDTAVYYCIMFYYGSSYSMDYWGQGTTVTVSS VL: DIQMTQSPSSLSASVGDRVTITCRASQDIRNYLNWYQQKPGKAPKLLIYHTSRLHSGVPSRFSGSGSGTDFTFTISSLQPEDIATYYCQQGDTLPLTFGQGTRLEIK |  |  |  |  | 0.0406 | 4.57e-05 | 1.12e+06 | no binding (tested: 100 nM) | 0.16 | 0.26 | 0.62
4 | Humanized Antibody 28D4-4-MMAF (antibody, V domains shown, MC-MMAF on cysteines reduced with TCEP (sites not given), DAR 3.0-5.0 per antibody) VH: EVQLVESGGGLVKPGGSLRLSCAASGFTFSNYVMSWARQAPGKRLEWVAEISTGGSHTYYSDTVTGRFTISRDNAKKSLYLQMNSLRAEDTAVYYCIMFYYGSSYSMDYWGQGTTVTVSS VL: DIQMTQSPSSLSASVGDRVTITCRASQDIRNYLNWYQQKPGKAPKLLIYHTSRLHSGVPSRFSGSGSGTDFTFTISSLQPEDIATYYCQQGDTLPLTFGQGTRLEIK |  |  |  | 0.074 |  |  |  |  |  |  | 
5 | Humanized Antibody 28D4-7-MMAF (antibody, V domains shown, MC-MMAF on cysteines reduced with TCEP (sites not given), DAR 3.0-5.0 per antibody) VH: EVQLVESGGGLVKPGGSLRLSCAASGFTFSNYVMSWIRQAPGKGLEWVAEISTGGSHTYYSDTVTGRFTISRDNAKKSLYLQMNSLRAEDTAVYYCIMFYYGSSYSMDYWGQGTTVTVSS VL: DIQMTQSPSSLSASVGDRVTITCRASQDIRNYLNWYQQKPGKAPKLLIYHTSRLHSGVPSRFSGSGSGTDYTFTISSLQPEDIATYYCQQGDTLPLTFGQGTRLEIK |  |  |  | 0.066 |  |  |  |  |  |  | 
6 | Humanized antibody 28D4-7 (antibody, V domains shown, also called h28D4-7) VH: EVQLVESGGGLVKPGGSLRLSCAASGFTFSNYVMSWIRQAPGKGLEWVAEISTGGSHTYYSDTVTGRFTISRDNAKKSLYLQMNSLRAEDTAVYYCIMFYYGSSYSMDYWGQGTTVTVSS VL: DIQMTQSPSSLSASVGDRVTITCRASQDIRNYLNWYQQKPGKAPKLLIYHTSRLHSGVPSRFSGSGSGTDYTFTISSLQPEDIATYYCQQGDTLPLTFGQGTRLEIK |  |  |  |  | 0.0256 | 9.42e-05 | 3.68e+06 | no binding (tested: 100 nM) | 0.161 | 0.37 | 0.27
7 | Humanized antibody 28D4-4 (antibody, V domains shown, also called h28D4-4) VH: EVQLVESGGGLVKPGGSLRLSCAASGFTFSNYVMSWARQAPGKRLEWVAEISTGGSHTYYSDTVTGRFTISRDNAKKSLYLQMNSLRAEDTAVYYCIMFYYGSSYSMDYWGQGTTVTVSS VL: DIQMTQSPSSLSASVGDRVTITCRASQDIRNYLNWYQQKPGKAPKLLIYHTSRLHSGVPSRFSGSGSGTDFTFTISSLQPEDIATYYCQQGDTLPLTFGQGTRLEIK |  |  |  |  | 0.0231 | 3.58e-05 | 1.55e+06 | no binding (tested: 100 nM) | 0.147 | 0.38 | 0.72
8 | Chimeric Antibody 28D4-MMAF (antibody, V domains shown, MC-MMAF on cysteines reduced with TCEP (sites not given), DAR 3.0-5.0 per antibody) VH: DVQLVESGGGLVRPGGSLKLSCAASGFTFSNYVMSWARQSPEKRLEWVAEISTGGSHTYYSDTVTGRFTISRDNAKKALYLEMSSLRSEDTAIYYCIMFYYGSSYSMDYWGQGTSVTVSS VL: DIQMTQSTSSLSASLGDRITISCRASQDIRNYLNWYQQKPDGTVKLLIYHTSRLHSGVPSRFSGSGSGTDYSLTISNLEQEDIATYFCQQGDTLPLTFGAGTRLELK |  |  |  | 0.091 |  |  |  |  |  |  | 
9 | Chimeric antibody 28D4 (antibody, V domains shown, Mouse variable domains on human IgG1 heavy and human kappa light constant regions; also called c28D4; TPBG chimeric antibody 28D4) VH: DVQLVESGGGLVRPGGSLKLSCAASGFTFSNYVMSWARQSPEKRLEWVAEISTGGSHTYYSDTVTGRFTISRDNAKKALYLEMSSLRSEDTAIYYCIMFYYGSSYSMDYWGQGTSVTVSS VL: DIQMTQSTSSLSASLGDRITISCRASQDIRNYLNWYQQKPDGTVKLLIYHTSRLHSGVPSRFSGSGSGTDYSLTISNLEQEDIATYFCQQGDTLPLTFGAGTRLELK |  |  |  |  | 0.013 | 3.24e-05 | 2.5e+06 | no binding (tested: 100 nM) | 0.165 | 0.33 | 0.94
